Assay results as given in patent publication US20140223606, “COMPOSITIONS AND METHODS COMPRISING SEQUENCES HAVING MEGANUCLEASE ACTIVITY” (PIONEER HI BRED INTERNATIONAL INC, published 2014).
Numbering of substitutions follows the chain as printed.

T1: LIG3-4(B82) (artificial)
T1 chain: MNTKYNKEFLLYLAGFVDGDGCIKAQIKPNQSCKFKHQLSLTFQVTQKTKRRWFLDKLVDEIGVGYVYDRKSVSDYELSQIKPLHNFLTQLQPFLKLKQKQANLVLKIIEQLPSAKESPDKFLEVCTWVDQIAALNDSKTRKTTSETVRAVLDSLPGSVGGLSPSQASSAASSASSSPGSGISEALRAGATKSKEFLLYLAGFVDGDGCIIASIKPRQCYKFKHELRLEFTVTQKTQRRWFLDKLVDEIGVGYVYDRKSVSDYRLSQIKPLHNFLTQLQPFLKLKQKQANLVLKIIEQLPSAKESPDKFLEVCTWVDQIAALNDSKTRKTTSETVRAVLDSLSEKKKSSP

T2: LIG3-4(B70) (artificial)
T2 chain: T1 chain with C209S, K258P

T3: LIG3-4(B73) (artificial)
T3 chain: T1 chain with K50Q, C209S

T4: ZM6.22v2(J4) (artificial)
T4 chain: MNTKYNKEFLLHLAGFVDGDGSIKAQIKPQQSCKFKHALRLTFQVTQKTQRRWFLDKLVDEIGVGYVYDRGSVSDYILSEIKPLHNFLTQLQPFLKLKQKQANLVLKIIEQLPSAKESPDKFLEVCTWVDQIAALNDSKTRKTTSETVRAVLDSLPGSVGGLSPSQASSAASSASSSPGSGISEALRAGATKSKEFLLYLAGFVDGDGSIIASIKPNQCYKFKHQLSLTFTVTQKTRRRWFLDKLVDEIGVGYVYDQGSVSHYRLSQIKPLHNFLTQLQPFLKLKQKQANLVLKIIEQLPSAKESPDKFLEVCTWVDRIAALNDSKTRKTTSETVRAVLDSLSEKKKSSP

T5: ZM6.22v2(I8) (artificial)
T5 chain: T4 chain with E124R, V129A, R237Q, E311R, R318Q

B1: LIG3-4 recognition site (dsDNA)
DNA 1: ATATACCTCACACGTACGCGTA
DNA 2: TACGCGTACGTGTGAGGTATAT
B2: ZM6.22v2 recognition site (dsDNA)
DNA 1: ATTGCTCTCTCACATACTTTTA
DNA 2: TAAAAGTATGTGAGAGAGCAAT

Key:
Settings in all cases: tags: NLS, 6xHis
[1] = molecular target: T1, LIG3-4(B82); experiment: cell_activity; yeast 30 C; 22 C: 4
Procedure: (§1) A 3 mL culture of selective media (MP Biomedical) was inoculated with a single colony of the yeast screening strain and grown at 30° C. overnight. On the following day, a 50 ml YPD culture (MP Biomedical) was started with 2 ml of the overnight culture and grown at 30° C. overnight. On the following day, the cells were harvested by centrifugation at 4000 rpm. The cells were resuspended in 100 ml ice cold water and centrifuged again. The cells were then washed in 1.2 M sorbitol, followed by treatment with 2 ml of 10 mM Tris pH 8.0, 1 mM EDTA, 100 mM Lithium acetate, 10 mM DTT, 0.6M sorbitol for 30 minutes at 30° C. with shaking. The cells were recovered by centrifugation, washed in 40 ml 1.2M sorbitol and finally resuspended in 250 microliters of 1.2M sorbitol. 50 microliter aliquots were transferred to test tubes on ice. Up to 5 microliters of DNA (100-500 nanograms) were added. The suspension was transferred to a 0.2 cm electroporation cuvette, on ice. Electroporation was performed with a pulse charge at 1.5 kV, 200 ohms, 25 microF (pulse time of 5 milliseconds). 1 mL YPD media (MP Biomedical) was added and the cells were allowed to recover at 30° C. for 1-2 hr. The cells were centrifuged, resuspended in 100 uL 1M sorbitol and plated on selective media lacking leucine and containing 2% galactose. The resulting yeast colonies were incubated at various temperatures ranging from 22 to 37 degrees Celsius for 7-10 days. I-CreI and meganucleases derived from it have maximal activity at or above 37 degrees Celsius. Screening was performed at a range of temperatures from 22 to 37 degrees in order to observe increases in activity at lower temperatures which are relevant to certain biological systems (eg. plant cells, plant cell cultures, etc). At that time the red/white sectoring phenotype, indicative of meganuclease activity was observed. Colonies with increased white sectoring over the parental meganuclease (indicating colonies expressing a meganuclease with increased meganuclease activity), also referred to as “hits” and sometimes completely white, were isolated for further analysis.

[2] = molecular target: T2, LIG3-4(B70); experiment: cell_activity; yeast 30 C; 22 C: 4
Procedure: as §1

[3] = molecular target: T3, LIG3-4(B73); experiment: cell_activity; yeast 30 C; 22 C: 4
Procedure: as §1

[4] = molecular target: T4, ZM6.22v2(J4); experiment: cell_activity; yeast 37 C; 30 C: 0.5
Procedure: as §1
(§2) A total of 13 ZM6.22v2 variants with increased activity were confirmed in the yeast system (as described in Example 6). Increased activity was observed across a range of temperatures: 28 degrees Celsius, 30 degrees Celsius and 37 degrees Celsius, as shown in Table 16.

[5] = molecular target: T5, ZM6.22v2(I8); experiment: cell_activity; yeast 37 C; 30 C: 0.5
Procedure: as §1, §2

Row | Binder | activity [1] [score 0-4] | activity [2] [score 0-4] | activity [3] [score 0-4] | activity [4] [score 0-4] | activity [5] [score 0-4]
1 | B1 | 4 | 4 | 4 | – | –
2 | B2 | – | – | – | 3.5 | 2.5
